Data from US20220002699A1.

Molecular target: SARS-CoV-2 spike (S) glycoprotein on live SARS-CoV-2 virus (SARS-CoV-2) (UniProt P0DTC2)
Test: cell-based or functional assay

Neg control
in vitro virus neutralization EC50: > 10 mg/L
